Measurements as given in patent publication US20240109974A1 (SHANDONG SIMCERE BIOPHARMACEUTICAL, published 2024).

Key:
[1] = target: T1, Human TNFR2-His (Sino 10417-H08H) (human, UniProt P20333 23-257); test: ELISA, plate coated with Human TNFR2-His, detection with anti-human IgG Fc-HRP [panel C]
T1 construct: Bought protein; also called recombinant human TNFR2 protein; not shown: His tag
T1 sequence (looked up): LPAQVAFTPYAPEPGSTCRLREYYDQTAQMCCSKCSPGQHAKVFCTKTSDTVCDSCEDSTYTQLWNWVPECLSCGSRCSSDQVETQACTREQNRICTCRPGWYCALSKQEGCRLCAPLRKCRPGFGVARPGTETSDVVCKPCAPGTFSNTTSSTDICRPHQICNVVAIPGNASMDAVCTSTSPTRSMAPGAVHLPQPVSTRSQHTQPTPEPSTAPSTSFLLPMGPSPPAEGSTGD
Experimental: (§1) The test humanized antibody against TNFR2 (as described in Example 1, the antibody was comprised of variable regions linked to IgG-Fc; the WT chimeric antibody also adopted the IgG-Fc structure) was subjected to 3.33-fold gradient dilution, loaded with 100 μl/well, and incubated with shaking at room temperature for 1.5 hours. The plate was washed, and then a working solution of murine anti-human IgG Fc-HRP (diluted at 1:10000) was added, loaded with 100 μl/well, and incubated with shaking at room temperature for 1.0 hour. The plate was washed again, and then the substrate TMB of HRP was added to develop colour. A stop solution was added to stop the reaction, and then a microplate reader (MD 13) was used to read the absorbance value. The binding curve of an antibody was drawn with antibody concentration as the abscissa and corresponding OD value as the ordinate, and fitted with four parameters (GraphPad Prism9) to calculate the EC50 value. The smaller the EC50 value, the stronger the binding ability of an antibody to human/cynomolgus monkey TNFR2. The binding effect of a humanized antibody was normalized to its corresponding human-murine chimeric antibody WT (see SEQ ID NOs: 38-43 for the sequence). The higher the percentage value, the better the binding effect of the humanized antibody. […]

[2] = target: T2, human TNFR2 on the surface of CHO-TNFR2 cells (human, UniProt P20333 23-461); test: flow cytometry competition: antibody titrated on CHO-TNFR2 cells, then human TNFα-biotin, detection with PE-streptavidin [panel C]
T2 construct: whole, on cells
T2 sequence (looked up): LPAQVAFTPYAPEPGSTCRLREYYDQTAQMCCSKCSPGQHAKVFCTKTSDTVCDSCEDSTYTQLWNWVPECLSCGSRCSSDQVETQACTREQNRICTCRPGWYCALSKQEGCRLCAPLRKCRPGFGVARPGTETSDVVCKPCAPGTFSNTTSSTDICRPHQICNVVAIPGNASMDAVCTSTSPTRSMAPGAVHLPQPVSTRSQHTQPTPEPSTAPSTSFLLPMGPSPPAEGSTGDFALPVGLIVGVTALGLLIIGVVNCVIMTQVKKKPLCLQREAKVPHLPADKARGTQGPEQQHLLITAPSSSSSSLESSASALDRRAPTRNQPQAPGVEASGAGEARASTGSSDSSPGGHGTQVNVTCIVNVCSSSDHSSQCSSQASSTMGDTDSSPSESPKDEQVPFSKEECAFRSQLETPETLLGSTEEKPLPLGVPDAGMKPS
Experimental: CHO stable cells highly expressing human TNFR2 were used for the experiment (the same as CHO-TNFR2 in Example 4). The CHO-TNFR2 cells were digested, washed twice with DPBS, then stained with Live/Dead (L/D) (20 minutes at room temperature), and plated at a density of 1×10⁵ cells/50 μl/well. A test anti-TNFR2 antibody was diluted to 6 μg/ml with a staining buffer as the starting concentration: the antibody was subjected to 3.33-fold gradient dilution, with a total of 7 concentration points. The diluted antibody was added to the plated cells at 50 μl/well, and the mixture was mixed well by gentle pipetting, and incubated at 4° C. for 30 minutes. Then the diluted 100 ng/ml of human TNFα-biotin was added at 100 μl/well, and the mixture was mixed well by gentle pipetting, and then incubated at 4° C. for 30 minutes. The mixture was washed twice with a staining buffer, and then 0.12 μg/ml PE-streptavidin (BioLegend, Cat #405204) was added at 100 μl/well; the resulting mixture was incubated at 4° C. for 30 minutes. The mixture was washed twice with a staining buffer, and then 150 μl of staining buffer was added to resuspend the cells; signals were detected by a flow cytometer (Thermo Attune NxT). […]

[3] = target: T3, human TNFR2 (Novoprotein, Cat #C830) (human, UniProt P20333 23-257, limits assumed); test: competition ELISA: antibody titrated against human TNFα-Biotin on coated human TNFR2 (Novoprotein), detection with Streptavidin-HRP [panel A]
T3 construct: construct not described; also called human TNFR2 protein
T3 sequence (looked up): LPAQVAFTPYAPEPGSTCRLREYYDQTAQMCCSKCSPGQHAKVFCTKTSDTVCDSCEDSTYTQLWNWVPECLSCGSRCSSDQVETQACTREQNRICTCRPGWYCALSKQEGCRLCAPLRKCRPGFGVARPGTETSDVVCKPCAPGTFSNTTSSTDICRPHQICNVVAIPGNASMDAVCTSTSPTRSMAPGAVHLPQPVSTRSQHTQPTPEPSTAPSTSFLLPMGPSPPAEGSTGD
Experimental: 1 μg/ml human TNFR2 (Novoprotein, Cat #C830) was pre-coated with 100 μl/well […] in an ELISA plate. All the test TNFR2 antibodies were subjected to 2.5-fold gradient dilution from the highest concentration of 30 μg/ml; the diluted antibodies were mixed with 15 ng/ml human TNFα-Biotin (Acro Biosystem, Cat #TNA-H82E3) in equal volume, respectively; the resulting mixture was added to the ELISA plate at 100 μl/well, and incubated with shaking at room temperature for 2.0 hours. The plate was washed, and then a Streptavidin-HRP working solution (diluted at 1:10000) was added at 100 μl/well, and the mixture was incubated with shaking at room temperature for 40 minutes. The plate was washed again, and then the substrate TMB of HRP was added to develop colour. A stop solution was added to stop the reaction, and then a microplate reader (MD 13) was used to read the absorbance value. The inhibitory curve of an antibody was drawn with antibody concentration as the abscissa and corresponding OD value as the ordinate, and fitted with four parameters (GraphPad Prism9) to calculate the IC50 value. The smaller the IC50 value, the stronger the ability of an antibody to inhibit the binding of human TNFα to human TNFR2. The blocking effect of a humanized antibody was normalized to its corresponding human-murine chimeric antibody WT. […]

[4] = target: T1, Human TNFR2-His (Sino 10417-H08H); test: ELISA, plate coated with Human TNFR2-His, detection with anti-human IgG Fc-HRP [panel B]
Experimental: as §1

B1: 224-WT (antibody, V domains shown)
VH: EVQLQESGPEIVKPGASVKLSCTASGFNNKDIYMHWVKQRPEQGLEWIGRIDPATGNTKHDPKFQDKATLSSDTSSNTAYLQFSSLTSEDTAVYYCAHSPYGDFGAMDYWGQGTTVTVSS
VL: DIQMTQSPAIMSASLGERVTMTCTASSSVSSNYLHWYQQKPGSSPKLWIYSTSNLPSGVPARFSGSGSGTSYSLTISSMEAEDAATYYCHQYHRSPWTFGGGTKLEIK
notes: Human-murine chimeric wild-type molecule; also called human-murine chimeric antibody WT of #224
- EC50 (read off the curve) [1]: ~0.01 mg/L
- IC50 (read off the curve) [2]: ~0.05 mg/L

B2: 001-WT (antibody, V domains shown)
VH: EVQLQESGGGLVQPGGSLNLSCAASGFAFSTYDLSWVRQTPEKRLEWVAYINNGGISTYYSDTVKGRFTISRDNAKNTLYLQMSSLKSEDTAMYYCVRGPFYGSANYFDYWGQGTTVTVSS
VL: EIVMTQSPASLSLSVGETVTITCRTSESIYSNLPWYQQKQGKSPQLLVYDATKLAEGVPSRFSGSESGTQYSLKINSLQSEDFGTYYCQHFWVTPWTFGGGTKLEIK
notes: Human-murine chimeric wild-type molecule; also called human-murine chimeric antibody WT of #001
- IC50 (read off the curve) [3]: ~0.6 mg/L

B3: 219-WT (antibody, V domains shown)
VH: EVQLQESGAELVRPGASVKLSCKASGYSFTNYWMNWVKQRPGQGLEWIGMIHPSDTETRLNQNFKDKATLTVDKSSSTSYMQLSSPTSEDSAVYYCARGEGLGAARSVSMDYWGQGTTVTVSS
VL: DILMTQSPSSLSASLGDRVTISCRASQDISNYLNWYQQKPDGTVKVLIYYTAILHSGVPSRFSGSGSGTDYSLTISNLEQEDIATYFCQQGNTLPWTFGGGTKLEIK
notes: Human-murine chimeric wild-type molecule
- EC50 (read off the curve) [4]: ~0.02 mg/L
